According to ChEMBL document CHEMBL5620400, “Design, synthesis, antiviral evaluation, and In silico studies of acrylamides targeting nsP2 from Chikungunya virus” (Eur J Med Chem, 2023):
Active and inactive are the calls of the source. No cut-off for these calls is given here.

Legend:
Sindbis virus = assay: Antiviral activity against SINV infected african green monkey Vero cells assessed as inhibition of virus induced cytopathic effect at 100 uM measured after 48 hrs by microscopic imaging analysis; type: functional, organism-based
[1] = system: COc1ccccc1/C=C/C(=O)Nc1ccccc1; assay: (§1) Binding affinity to CHIKV nsP2 assessed as Vmax (at tested concentration) by measuring fluorescence by Lineweaver-Burk plot; settings: Chikungunya virus
[2] = system: O=C(/C=C/c1ccc(Cl)cc1Cl)Nc1ccccc1; assay: as §1; settings: Chikungunya virus
[3] = system: O=C(/C=C/c1ccc(C(F)(F)F)cc1)Nc1ccccc1; assay: as §1; settings: Chikungunya virus
[4] = system: O=C(/C=C/c1ccc(Br)cc1)Nc1ccccc1; assay: as §1; settings: Chikungunya virus
[5] = system: COc1ccccc1/C=C/C(=O)Nc1ccccc1; assay: (§2) Binding affinity to CHIKV nsP2 assessed as Vmax (at I = 0) by measuring fluorescence by Lineweaver-Burk plot; settings: Chikungunya virus
[6] = system: O=C(/C=C/c1ccc(Cl)cc1Cl)Nc1ccccc1; assay: as §2; settings: Chikungunya virus
[7] = system: O=C(/C=C/c1ccc(C(F)(F)F)cc1)Nc1ccccc1; assay: as §2; settings: Chikungunya virus
[8] = system: O=C(/C=C/c1ccc(Br)cc1)Nc1ccccc1; assay: as §2; settings: Chikungunya virus
[9] = system: COc1ccccc1/C=C/C(=O)Nc1ccccc1; assay: (§3) Binding affinity to CHIKV nsP2 assessed as Km by measuring fluorescence by multimode microplate reader; settings: Chikungunya virus
[10] = system: O=C(/C=C/c1ccc(Cl)cc1Cl)Nc1ccccc1; assay: as §3; settings: Chikungunya virus
[11] = system: O=C(/C=C/c1ccc(C(F)(F)F)cc1)Nc1ccccc1; assay: as §3; settings: Chikungunya virus
[12] = system: O=C(/C=C/c1ccc(Br)cc1)Nc1ccccc1; assay: as §3; settings: Chikungunya virus

For COc1ccccc1/C=C/C(=O)Nc1ccccc1, the Activity (Sindbis virus) was “Active”.
O=C(/C=C/c1ccc(Cl)cc1Cl)Nc1ccccc1 was tested, and the Activity (Sindbis virus) was “Active”.
In the case of O=C(/C=C/c1ccc(Br)cc1)Nc1ccccc1, the Activity (Sindbis virus) is reported as “Active”.
For “Polyprotein P1234 (Chikungunya virus (strain S27-African prototype) (CHIKV)), Q8JUX6”, the Vmax [1] was 0.71, the Vmax [2] was 0.83 and the Vmax [3] was 1.58. For the same compound, the Vmax [4] was 0.87, the Vmax [5] was 0.76 and the Vmax [6] was 0.84. For the same compound, the Vmax [7] was 1.57, the Vmax [8] was 0.73 and the Km [9] was 4.9 µM. It also gave a Km [10] of 3.5 µM, a Km [11] of 9.7 µM and a Km [12] of 5.4 µM.
O=C(/C=C/c1ccc(C(F)(F)F)cc1)Nc1ccccc1 was tested, and the Activity (Sindbis virus) was “Active”.
